Measured values published in the supplement of paper PMC11246515.
± gives the standard deviation of the averaged measurements.

Assay: total protein half-life in vivo (active degradation + dilution); higher = more stable protein
[1] = E. coli NCM3722 delta-clpP delta-lon delta-hslV, growth: N-lim chemostat, doubling time 6 h
[2] = E. coli NCM3722 delta-clpP, growth: N-lim chemostat, doubling time 6 h
[3] = E. coli NCM3722 delta-hslV, growth: N-lim chemostat, doubling time 6 h
[4] = E. coli NCM3722 delta-lon, growth: N-lim chemostat, doubling time 6 h
[5] = E. coli NCM3722 delta-smpB, growth: N-lim chemostat, doubling time 6 h
[6] = wild type E. coli NCM3722, growth: C-lim chemostat, doubling time 3 h
[7] = wild type E. coli NCM3722, growth: C-lim chemostat, doubling time 6 h
[8] = wild type E. coli NCM3722, growth: C-lim chemostat, doubling time 12 h
[9] = wild type E. coli NCM3722, growth: N-lim chemostat, doubling time 6 h
[10] = wild type E. coli NCM3722, growth: N-lim chemostat, doubling time 12 h
[11] = wild type E. coli NCM3722, growth: P-lim chemostat, doubling time 6 h
[12] = wild type E. coli NCM3722, growth: P-lim chemostat, doubling time 12 h

Row | Sequence | total protein half-life in vivo [1] | total protein half-life in vivo [2] | total protein half-life in vivo [3] | total protein half-life in vivo [4] | total protein half-life in vivo [5] | total protein half-life in vivo [6] | total protein half-life in vivo [7] | total protein half-life in vivo [8] | total protein half-life in vivo [9] | total protein half-life in vivo [10] | total protein half-life in vivo [11] | total protein half-life in vivo [12]
1 | MSSSCIEEVSVPDDNWYRIANELLSRAGIAINGSAPADIRVKNPDFFKRVLQEGSLGLGESYMDGWWECDRLDMFFSKVLRAGLENQLPHHFKDTLRIAGARLFNLQSKKRAWIVGKEHYDLGNDLFSRMLDPFMQYSCAYWKDADNLESAQQAKLKMICEKLQLKPGMRVLDIGCGWGGLAHYMASNYDVSVVGVTISAEQQKMAQERCEGLDVTILLQDYRDLNDQFDRIVSVGMFEHVGPKNYDTYFAVVDRNLKPEGIFLLHTIGSKKTDLNVDPWINKYIFPNGCLPSVRQIAQSSEPHFVMEDWHNFGADYDTTLMAWYERFLAAWPEIADNYSERFKRMFTYYLNACAGAFRARDIQLWQVVFSRGVENGLRVAR [P0A9H7] | 2.09 ± 0.32 h | 0.86 ± 0.041 h | 0.465 ± 0.078 h | 0.662 ± 0.29 h | 0.503 ± 0.04 h | 0.474 ± 0.077 h | 0.6003 ± 0.0022 h | 0.871 ± 0.26 h | 0.643 ± 0.12 h | 0.868 ± 0.22 h | 0.649 ± 0.26 h | 1.27 ± 0.76 h
2 | MINVLIIDDDAMVAELNRRYVAQIPGFQCCGTASTLEKAKEIIFNSDTPIDLILLDIYMQKENGLDLLPVLHNARCKSDVIVISSAADAATIKDSLHYGVVDYLIKPFQASRFEEALTGWRQKKMALEKHQYYDQAELDQLIHGSSSNEQDPRRLPKGLTPQTLRTLCQWIDAHQDYEFSTDELANEVNISRVSCRKYLIWLVNCHILFTSIHYGVTGRPVYRYRIQAEHYSLLKQYCQ [P0AD01] | 5.41 ± 0.33 h | 2.86 h | 4.1 ± 0.41 h | 3.42 ± 0.16 h | 3.1 ± 0.27 h | 1.69 ± 0.17 h | 3.27 ± 0.38 h | 5.01 ± 0.094 h | 3.51 ± 0.13 h | 5.76 ± 0.53 h | 1.58 h | 3.84 ± 0.61 h
3 | MRKTVAFGFVGTVLDYAGRGSQRWSKWRPTLCLCQQESLVIDRLELLHDARSRSLFETLKRDIASVSPETEVVSVEIELHNPWDFEEVYACLHDFARGYEFQPEKEDYLIHITTGTHVAQICWFLLAEARYLPARLIQSSPPRKKEQPRGPGEVTIIDLDLSRYNAIASRFAEERQQTLDFLKSGIATRNPHFNRMIEQIEKVAIKSRAPILLNGPTGAGKSFLARRILELKQARHQFSGAFVEVNCATLRGDTAMSTLFGHVKGAFTGARESREGLLRSANGGMLFLDEIGELGADEQAMLLKAIEEKTFYPFGSDRQVSSDFQLIAGTVRDLRQLVAEGKFREDLYARINLWTFTLPGLRQRQEDIEPNLDYEVERHASLTGDSVRFNTEARRAWLAFATSPQATWRGNFRELSASVTRMATFATSGRITLDVVEDEINRLRYNWQESRPSALTALLGAEAENIDLFDRMQLEHVIAICRQAKSLSAAGRQLFDVSRQGKASVNDADRLRKYLARFGLTWEAVQDQHSSS |  |  |  | 4.02 h |  |  |  |  |  |  |  | 
4 | MVNLVIVSHSSRLGEGVGELARQMLMSDSCKIAIAAGIDDPQNPIGTDAVKVMEAIESVADADHVLVMMDMGSALLSAETALELLAPEIAAKVRLCAAPLVEGTLAATVSAASGADIDKVIFDAMHALEAKREQLGLPSSDTEISDTCPAYDEEARSLAVVIKNRNGLHVRPASRLVYTLSTFNADMLLEKNGKCVTPESINQIALLQVRYNDTLRLIAKGPEAEEALIAFRQLAEDNFGETEEVAPPTLRPVPPVSGKAFYYQPVLCTVQAKSTLTVEEEQDRLRQAIDFTLLDLMTLTAKAEASGLDDIAAIFSGHHTLLDDPELLAAASELLQHEHCTAEYAWQQVLKELSQQYQQLDDEYLQARYIDVDDLLHRTLVHLTQTKEELPQFNSPTILLAENIYPSTVLQLDPAVVKGICLSAGSPVSHSALIARELGIGWICQQGEKLYAIQPEETLTLDVKTQRFNRQG | 5.07 ± 0.8 h | 5.24 ± 0.96 h | 4.67 ± 0.96 h | 4.07 ± 0.32 h | 3.51 ± 0.52 h | 3.39 ± 0.48 h | 6.02 ± 0.54 h | 10 ± 0.98 h | 4.01 ± 0.29 h | 6.3 ± 0.85 h | 5.33 ± 0.27 h | 11.4 ± 1.5 h
5 | MKENNLNRVIGWSGLLLTSLLSTSALADNIGTSAEELGLSDYRHFVIYPRLDKALKAQKNNDEATAIREFEYIHQQVPDNIPLTLYLAEAYRHFGHDDRARLLLEDQLKRHPGDARLERSLAAIPVEVKSVTTVEELLAQQKACDAAPTLRCRSEVGQNALRLAQLPVARAQLNDATFAASPEGKTLRTDLLQRAIYLKQWSQADTLYNEARQQNTLSAAERRQWFDVLLAGQLDDRILALQSQGIFTDPQSYITYATALAYRGEKARLQHYLIENKPLFTTDAQEKSWLYLLSKYSANPVQALANYTVQFADNRQYVVGATLPVLLKEGQYDAAQKLLATLPANEMLEERYAVSVATRNKAEALRLARLLYQQEPANLTRLDQLTWQLMQNEQSREAADLLLQRYPFQGDARVSQTLMARLASLLESHPYLATPAKVAILSKPLPLAEQRQWQSQLPGIADNCPAIVRLLGDMSPSYDAAAWNRLAKCYRDTLPGVALYAWLQAEQRQPSAWQHRAVAYQAYQVEDYATALAAWQKISLHDMSNEDLLAAANTAQAAGNGAARDRWLQQAEKRGLGSNALYWWLHAQRYIPGQPELALNDLTRSINIAPSANAYVARATIYRQRHNVPAAVSDLRAALELEPNNSNTQAALGYALWDSGDIAQSREMLEPAHKGLPDDPALIRQLAYVNQRLDDMPATQHYARLVIDDIDNQALITPLTPEQNQQRFNFRRLHEEVGRRWTFSFDSSIGLRSGAMSTANNNVGGAAPGKSYRSYGQLEAEYRIGRNMLLEGDLLSVYSRVFADTGENGVMMPVKNPMSGTGLRWKPLRDQIFFIAVEQQLPLNGQNGASDTMLRASASFFNGGKYSDEWHPNGSGWFAQNLYLDAAQYIRQDIQAWTADYRVSWHQKVANGQTIEPYAHVQDNGYRDKGTQGAQLGGVGVRWNIWTGETHYDAWPHKVSLGVEYQHTFKAINQRNGERNNAFLTIGVHW |  | 6.61 ± 0.31 h |  | 6.08 ± 0.15 h | 5.92 ± 0.22 h |  | 6.45 ± 0.45 h | 11.31 ± 0.082 h | 6.193 ± 0.047 h | 12.7 ± 1 h | 5.88 ± 0.08 h | 
6 | MIAEFESRILALIDGMVDHASDDELFASGYLRGHLTLAIAELESGDDHSAQAVHTTVSQSLEKAIGAGELSPRDQALVTDMWENLFQQASQQ | 4.91 ± 0.31 h | 3.35 ± 0.41 h | 2.9 ± 0.23 h | 3.81 ± 0.062 h | 2.1 ± 0.046 h | 2.2 ± 0.23 h | 3.39 ± 0.1 h | 4.87 ± 0.25 h | 2.71 ± 0.54 h | 3.79 h | 2.75 ± 0.83 h | 4.58 ± 0.62 h
7 | MQSDKVLNLPAGYFGIVLGTIGMGFAWRYASQVWQVSHWLGDGLVILAMIIWGLLTSAFIARLIRFPHSVLAEVRHPVLSSFVSLFPATTMLVAIGFVPWFRPLAVCLFSFGVVVQLAYAAWQTAGLWRGSHPEEATTPGLYLPTVANNFISAMACGALGYTDAGLVFLGAGVFSWLSLEPVILQRLRSSGELPTALRTSLGIQLAPALVACSAWLSVNGGEGDTLAKMLFGYGLLQLLFMLRLMPWYLSQPFNASFWSFSFGVSALATTGLHLGSGSDNGFFHTLAVPLFIFTNFIIAILLIRTFALLMQGKLLVRTERAVLMKAEDKE |  |  |  |  | 6.2 h |  | > 8 h |  |  |  | 6.53 h | 
8 | MPAVIDKALDFIGAMDVSAPTPSSMNESTAKGIFKYLKELGVPASAADITARADQEGWNPGFTEKMVGWAKKMETGERSVIKNPEYFSTYMQEELKALV | 1.25 ± 0.38 h | 0.88 h |  |  | 0.51 h | 0.644 ± 0.18 h | 0.706 h |  | 0.681 ± 0.18 h | 0.727 ± 0.045 h | 0.402 h | 1.25 h
9 | MKKLKINYLFIGILALLLAVALWPSIPWFGKADNRIAAIQARGELRVSTIHTPLTYNEINGKPFGLDYELAKQFADYLGVKLKVTVRQNISQLFDDLDNGNADLLAAGLVYNSERVKNYQPGPTYYSVSQQLVYKVGQYRPRTLGNLTAEQLTVAPGHVVVNDLQTLKETKFPELSWKVDDKKGSAELMEDVIEGKLDYTIADSVAISLFQRVHPELAVALDITDEQPVTWFSPLDGDNTLSAALLDFFNEMNEDGTLARIEEKYLGHGDDFDYVDTRTFLRAVDAVLPQLKPLFEKYAEEIDWRLLAAIAYQESHWDAQATSPTGVRGMMMLTKNTAQSLGITDRTDAEQSISGGVRYLQDMMSKVPESVPENERIWFALAAYNMGYAHMLDARALTAKTKGNPDSWADVKQRLPLLSQKPYYSKLTYGYARGHEAYAYVENIRKYQISLVGYLQEKEKQATEAAMQLAQDYPAVSPTELGKEKFPFLSFLSQSSSNYLTHSPSLLFSRKGSEEKQN [P0AGC5] | 4.75 h |  |  |  |  |  |  |  | 1.64 h |  |  | 3.13 h
10 | MISAFDIFKIGIGPSSSHTVGPMNAGKSFIDRLESSGLLTATSHIVVDLYGSLSLTGKGHATDVAIIMGLAGNSPQDVVIDEIPAFIELVTRSGRLPVASGAHIVDFPVAKNIIFHPEMLPRHENGMRITAWKGQEELLSKTYYSVGGGFIVEEEHFGLSHDVETSVPYDFHSAGELLKMCDYNGLSISGLMMHNELALRSKAEIDAGFARIWQVMHDGIERGMNTEGVLPGPLNVPRRAVALRRQLVSSDNISNDPMNVIDWINMYALAVSEENAAGGRVVTAPTNGACGIIPAVLAYYDKFRRPVNERSIARYFLAAGAIGALYKMNASISGAEVGCQGEIGVACSMAAAGLTELLGGSPAQVCNAAEIAMEHNLGLTCDPVAGQVQIPCIERNAINAVKAVNAARMAMRRTSAPRVSLDKVIETMYETGKDMNDKYRETSRGGLAIKVVCG | 4.67 h |  |  |  |  |  | 2.13 h | 2.34 h |  |  |  | 
11 | MAHQLKLLKDDFFASDQQAVAVADRYPQDVFAEHTHDFCELVIVWRGNGLHVLNDRPYRITRGDLFYIHADDKHSYASVNDLVLQNIIYCPERLKLNLDWQGAIPGFNASAGQPHWRLGSMGMAQARQVIGQLEHESSQHVPFANEMAELLFGQLVMLLNRHRYTSDSLPPTSSETLLDKLITRLAASLKSPFALDKFCDEASCSERVLRQQFRQQTGMTINQYLRQVRVCHAQYLLQHSRLLISDISTECGFEDSNYFSVVFTRETGMTPSQWRHLNSQKD |  |  |  |  |  | 1.63 h |  |  |  |  |  | 
12 | MNLDDIINSMMPEVYQRLSTAVELGKWPDGVALTEEQKENCLQLVMLWQARHNIEAQHMTIDTNGQMVMKSKQQLKEDFGISAKPIAMFK | 4.42 ± 2.1 h | 0.712 h |  |  |  | 0.231 ± 0.0036 h | 0.237 ± 0.16 h | 0.116 ± 0.16 h | 0.172 h |  | 0.371 ± 0.17 h | 1.17 ± 1.3 h
13 | MTVTTFSELELDESLLEALQDKGFTRPTAIQAAAIPPALDGRDVLGSAPTGTGKTAAYLLPALQHLLDFPRKKSGPPRILILTPTRELAMQVSDHARELAKHTHLDIATITGGVAYMNHAEVFSENQDIVVATTGRLLQYIKEENFDCRAVETLILDEADRMLDMGFAQDIEHIAGETRWRKQTLLFSATLEGDAIQDFAERLLEDPVEVSANPSTRERKKIHQWYYRADDLEHKTALLVHLLKQPEATRSIVFVRKRERVHELANWLREAGINNCYLEGEMVQGKRNEAIKRLTEGRVNVLVATDVAARGIDIPDVSHVFNFDMPRSGDTYLHRIGRTARAGRKGTAISLVEAHDHLLLGKVGRYIEEPIKARVIDELRPKTRAPSEKQTGKPSKKVLAKRAEKKKAKEKEKPRVKKRHRDTKNIGKRRKPSGTGVPPQTTEE | 5.75 ± 0.085 h | 5.51 ± 0.25 h | 4.72 ± 0.45 h | 5.13 ± 0.37 h | 4.237 ± 0.022 h | 3.01 ± 0.26 h | 5.47 ± 0.41 h | 9.33 ± 0.45 h | 4.2 ± 0.049 h | 7.37 ± 0.27 h | 4.18 ± 0.28 h | 7.44 ± 0.14 h
